How the values were obtained:
[1] = system: SEQ ID NO. 41, Ac-SxPGSDDDDD-NH2
[2] = system: SEQ ID NO. 42, Ac-SxPGIYAAPFAKKK-NH2
[3] = system: SEQ ID NO. 27, Ac-SxPGSFRRR-NH2
[4] = system: SEQ ID NO. 48, Ac-EEEEYIQdPSxG-NH2
[5] = system: SEQ ID NO. 30, Ac-ALKLSRYPSFdPSxG-NH2

Sequence of MK2 enzyme (P49137 whole entry): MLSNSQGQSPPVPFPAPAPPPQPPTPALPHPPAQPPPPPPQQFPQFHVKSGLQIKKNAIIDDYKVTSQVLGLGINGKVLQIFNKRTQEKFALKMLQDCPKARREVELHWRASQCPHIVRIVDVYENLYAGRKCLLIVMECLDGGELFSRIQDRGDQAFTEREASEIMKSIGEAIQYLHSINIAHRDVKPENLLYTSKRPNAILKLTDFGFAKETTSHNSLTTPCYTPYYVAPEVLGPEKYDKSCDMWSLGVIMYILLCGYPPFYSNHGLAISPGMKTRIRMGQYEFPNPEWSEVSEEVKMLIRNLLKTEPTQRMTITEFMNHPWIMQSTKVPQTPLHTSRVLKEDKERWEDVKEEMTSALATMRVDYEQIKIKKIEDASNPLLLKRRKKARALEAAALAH

Substance: Erk1/2 kinase
- reaction rate, PDGF-treated NIH3T3 lysate [1]: The PDGF-treated sample showed a reaction rate of 1.55 RFU/sec
- reaction rate, control treated NIH3T3 lysate [1]: the control treated sample had a markedly reduced rate of 0.27 RFU/sec

Substance: p70-S6K
- reaction rate, control treated MCF-7 lysate [2]: the control treated sample had a markedly reduced rate of 0.12 RFU/sec
- reaction rate, insulin-treated MCF-7 lysate [2]: The insulin-treated sample showed a reaction rate of 1.13 RFU/sec

Substance: MK2 enzyme
- fluorescence signal at plateau; cascade reaction started by B-Raf captured from NGF-treated PC12 lysate [3]: fluorescence signals that reached a plateau at 150 minutes of incubation (3200 RFU)
- fluorescence signal at plateau; cascade reaction started by ERK1/2 captured from PDGF-treated NIH3T3 lysate [3]: a fluorescence signal of 3000 RFU that reached a plateau at 335 minutes of incubation
- fluorescence signal at plateau; cascade reaction started by MEK1 captured from PDGF-treated NIH3T3 lysate [3]: fluorescence signal of 3650 RFU that reached a plateau at 250 minutes of incubation
- fluorescence signal at plateau; cascade reaction started by p38 MAPK captured from anisomycin treated RAW lysate [3]: fluorescence signal of 3350 RFU that reached a plateau at 60 minutes of incubation
- fluorescence signal; cascade reaction started by ERK1/2 captured from control NIH3T3 lysate [3]: the control group produced fluorescence signal of 845 RFU
- fluorescence signal; cascade reaction started by MEK1 captured from control NIH3T3 lysate [3]: the control group produced fluorescence signal of 1050 RFU
- fluorescence signal; cascade reaction started by p38 MAPK captured from control RAW lysate [3]: the control group produced fluorescence signal of 1250 RFU

Substance: c-Src
- reaction rate, c-Src transfected CEF lysate [4]: The c-Src transfected CEF sample showed a reaction rate of 50 RFU/sec
- reaction rate, mock transfected (control) CEF lysate [4]: the control treated sample had a markedly reduced rate of 0.048 RFU/sec

Substance: RSK
- reaction rate, PMA-treated HeLa lysate [5]: The PMA-treated sample showed a reaction rate of 3.17 RFU/sec
- reaction rate, control treated HeLa lysate [5]: the control treated sample had a markedly reduced rate of 0.64 RFU/sec

From patent publication US20070196860
